Measured values: the supplement of paper PMC10567573

B1: LRRC45 (parent)
chain: FQTRQEMTSMSAELKMRAIQAEER

Variants of: B1
Assay: protein stability index of a GFP-peptide fusion (GPS, HEK-293T) (PSI 1-6); higher = more stable
Details: c terminus: a fixed tail appended
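Also: lentivirally expressed fusions sorted by FACS into six bins by GFP to DsRed ratio, PSI derived from sequencing read proportions per bin multiplied by bin number.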

Variant	protein stability index
FQTAQEMTSMSAELKMRAIQAEER [R4A]	4.09
FQTCQEMTSMSAELKMRAIQAEER [R4C]	4.63
FQTDQEMTSMSAELKMRAIQAEER [R4D]	4.99
FQTEQEMTSMSAELKMRAIQAEER [R4E]	4.95
FQTFQEMTSMSAELKMRAIQAEER [R4F]	3.37
FQTGQEMTSMSAELKMRAIQAEER [R4G]	4.34
FQTHQEMTSMSAELKMRAIQAEER [R4H]	3.66
FQTIQEMTSMSAELKMRAIQAEER [R4I]	4.09
FQTKQEMTSMSAELKMRAIQAEER [R4K]	4.08
FQTLQEMTSMSAELKMRAIQAEER [R4L]	4.4
FQTMQEMTSMSAELKMRAIQAEER [R4M]	3.94
FQTNQEMTSMSAELKMRAIQAEER [R4N]	4.35
FQTPQEMTSMSAELKMRAIQAEER [R4P]	4.62
FQTQQEMTSMSAELKMRAIQAEER [R4Q]	4.14
FQTSQEMTSMSAELKMRAIQAEER [R4S]	4.39
FQTTQEMTSMSAELKMRAIQAEER [R4T]	4.46
FQTVQEMTSMSAELKMRAIQAEER [R4V]	3.77
FQTWQEMTSMSAELKMRAIQAEER [R4W]	2.48
FQTYQEMTSMSAELKMRAIQAEER [R4Y]	3.88
FQTRAEMTSMSAELKMRAIQAEER [Q5A]	3.83
FQTRCEMTSMSAELKMRAIQAEER [Q5C]	2.82
FQTRDEMTSMSAELKMRAIQAEER [Q5D]	4.71
FQTREEMTSMSAELKMRAIQAEER [Q5E]	4.31
FQTRFEMTSMSAELKMRAIQAEER [Q5F]	2.04

Variant	protein stability index
FQTRGEMTSMSAELKMRAIQAEER [Q5G]	4.85
FQTRHEMTSMSAELKMRAIQAEER [Q5H]	3.54
FQTRIEMTSMSAELKMRAIQAEER [Q5I]	3.11
FQTRKEMTSMSAELKMRAIQAEER [Q5K]	4.08
FQTRLEMTSMSAELKMRAIQAEER [Q5L]	3.77
FQTRMEMTSMSAELKMRAIQAEER [Q5M]	3.32
FQTRNEMTSMSAELKMRAIQAEER [Q5N]	4.25
FQTRPEMTSMSAELKMRAIQAEER [Q5P]	3.99
FQTRREMTSMSAELKMRAIQAEER [Q5R]	3.7
FQTRSEMTSMSAELKMRAIQAEER [Q5S]	3.97
FQTRTEMTSMSAELKMRAIQAEER [Q5T]	3.65
FQTRVEMTSMSAELKMRAIQAEER [Q5V]	3.97
FQTRWEMTSMSAELKMRAIQAEER [Q5W]	1.66
FQTRYEMTSMSAELKMRAIQAEER [Q5Y]	1.79
FQTRQAMTSMSAELKMRAIQAEER [E6A]	3.42
FQTRQCMTSMSAELKMRAIQAEER [E6C]	3.33
FQTRQDMTSMSAELKMRAIQAEER [E6D]	3.63
FQTRQFMTSMSAELKMRAIQAEER [E6F]	2.27
FQTRQGMTSMSAELKMRAIQAEER [E6G]	3.48
FQTRQHMTSMSAELKMRAIQAEER [E6H]	3.02
FQTRQIMTSMSAELKMRAIQAEER [E6I]	2.5
FQTRQKMTSMSAELKMRAIQAEER [E6K]	3.53
FQTRQLMTSMSAELKMRAIQAEER [E6L]	3.03
FQTRQMMTSMSAELKMRAIQAEER [E6M]	3.36

Variant	protein stability index
FQTRQNMTSMSAELKMRAIQAEER [E6N]	3.87
FQTRQPMTSMSAELKMRAIQAEER [E6P]	2.78
FQTRQQMTSMSAELKMRAIQAEER [E6Q]	3.44
FQTRQRMTSMSAELKMRAIQAEER [E6R]	3.72
FQTRQSMTSMSAELKMRAIQAEER [E6S]	4.01
FQTRQTMTSMSAELKMRAIQAEER [E6T]	3.88
FQTRQVMTSMSAELKMRAIQAEER [E6V]	3.11
FQTRQEATSMSAELKMRAIQAEER [M7A]	4.26
FQTRQECTSMSAELKMRAIQAEER [M7C]	3.6
FQTRQEDTSMSAELKMRAIQAEER [M7D]	4.64
FQTRQEETSMSAELKMRAIQAEER [M7E]	4.57
FQTRQEFTSMSAELKMRAIQAEER [M7F]	3
FQTRQEGTSMSAELKMRAIQAEER [M7G]	3.93
FQTRQEHTSMSAELKMRAIQAEER [M7H]	4.28
FQTRQEITSMSAELKMRAIQAEER [M7I]	3.41
FQTRQEKTSMSAELKMRAIQAEER [M7K]	4.02
FQTRQELTSMSAELKMRAIQAEER [M7L]	3.77
FQTRQENTSMSAELKMRAIQAEER [M7N]	3.71
FQTRQEPTSMSAELKMRAIQAEER [M7P]	3.71
FQTRQEQTSMSAELKMRAIQAEER [M7Q]	4.14
FQTRQERTSMSAELKMRAIQAEER [M7R]	4.26
FQTRQESTSMSAELKMRAIQAEER [M7S]	4.27
FQTRQETTSMSAELKMRAIQAEER [M7T]	4.61
FQTRQEVTSMSAELKMRAIQAEER [M7V]	3.4

Variant	protein stability index
FQTRQEWTSMSAELKMRAIQAEER [M7W]	2.68
FQTRQEYTSMSAELKMRAIQAEER [M7Y]	3.31
FQTRQEMASMSAELKMRAIQAEER [T8A]	3.85
FQTRQEMCSMSAELKMRAIQAEER [T8C]	3.11
FQTRQEMDSMSAELKMRAIQAEER [T8D]	4.16
FQTRQEMESMSAELKMRAIQAEER [T8E]	4.57
FQTRQEMFSMSAELKMRAIQAEER [T8F]	2.19
FQTRQEMGSMSAELKMRAIQAEER [T8G]	4.33
FQTRQEMHSMSAELKMRAIQAEER [T8H]	4.38
FQTRQEMISMSAELKMRAIQAEER [T8I]	3.8
FQTRQEMKSMSAELKMRAIQAEER [T8K]	3.86
FQTRQEMLSMSAELKMRAIQAEER [T8L]	3.79
FQTRQEMMSMSAELKMRAIQAEER [T8M]	3.47
FQTRQEMNSMSAELKMRAIQAEER [T8N]	3.92
FQTRQEMPSMSAELKMRAIQAEER [T8P]	3.94
FQTRQEMQSMSAELKMRAIQAEER [T8Q]	4.28
FQTRQEMRSMSAELKMRAIQAEER [T8R]	4.26
FQTRQEMSSMSAELKMRAIQAEER [T8S]	3.72
FQTRQEMVSMSAELKMRAIQAEER [T8V]	3.76
FQTRQEMWSMSAELKMRAIQAEER [T8W]	1.34
FQTRQEMYSMSAELKMRAIQAEER [T8Y]	2.69
FQTRQEMTAMSAELKMRAIQAEER [S9A]	4.43
FQTRQEMTCMSAELKMRAIQAEER [S9C]	3.41
FQTRQEMTDMSAELKMRAIQAEER [S9D]	4.05

Variant	protein stability index
FQTRQEMTEMSAELKMRAIQAEER [S9E]	4.49
FQTRQEMTFMSAELKMRAIQAEER [S9F]	3.02
FQTRQEMTGMSAELKMRAIQAEER [S9G]	4.11
FQTRQEMTHMSAELKMRAIQAEER [S9H]	3.84
FQTRQEMTIMSAELKMRAIQAEER [S9I]	3.58
FQTRQEMTKMSAELKMRAIQAEER [S9K]	4.32
FQTRQEMTLMSAELKMRAIQAEER [S9L]	4.12
FQTRQEMTMMSAELKMRAIQAEER [S9M]	4.17
FQTRQEMTNMSAELKMRAIQAEER [S9N]	4.28
FQTRQEMTPMSAELKMRAIQAEER [S9P]	4.01
FQTRQEMTQMSAELKMRAIQAEER [S9Q]	3.73
FQTRQEMTRMSAELKMRAIQAEER [S9R]	3.78
FQTRQEMTTMSAELKMRAIQAEER [S9T]	3.96
FQTRQEMTVMSAELKMRAIQAEER [S9V]	3.51
FQTRQEMTWMSAELKMRAIQAEER [S9W]	2.32
FQTRQEMTYMSAELKMRAIQAEER [S9Y]	3.28
FQTRQEMTSASAELKMRAIQAEER [M10A]	3.84
FQTRQEMTSCSAELKMRAIQAEER [M10C]	2.53
FQTRQEMTSDSAELKMRAIQAEER [M10D]	3.98
FQTRQEMTSESAELKMRAIQAEER [M10E]	3.51
FQTRQEMTSFSAELKMRAIQAEER [M10F]	4.1
FQTRQEMTSGSAELKMRAIQAEER [M10G]	4.34
FQTRQEMTSHSAELKMRAIQAEER [M10H]	4.12
FQTRQEMTSISAELKMRAIQAEER [M10I]	3.69

Variant	protein stability index
FQTRQEMTSKSAELKMRAIQAEER [M10K]	4.07
FQTRQEMTSLSAELKMRAIQAEER [M10L]	4.27
FQTRQEMTSNSAELKMRAIQAEER [M10N]	4.14
FQTRQEMTSPSAELKMRAIQAEER [M10P]	4.55
FQTRQEMTSQSAELKMRAIQAEER [M10Q]	4.21
FQTRQEMTSRSAELKMRAIQAEER [M10R]	4.16
FQTRQEMTSSSAELKMRAIQAEER [M10S]	4.1
FQTRQEMTSTSAELKMRAIQAEER [M10T]	4.28
FQTRQEMTSVSAELKMRAIQAEER [M10V]	3.94
FQTRQEMTSWSAELKMRAIQAEER [M10W]	3.07
FQTRQEMTSYSAELKMRAIQAEER [M10Y]	3.97
FQTRQEMTSMAAELKMRAIQAEER [S11A]	3.88
FQTRQEMTSMCAELKMRAIQAEER [S11C]	3.63
FQTRQEMTSMDAELKMRAIQAEER [S11D]	4.54
FQTRQEMTSMEAELKMRAIQAEER [S11E]	3.98
FQTRQEMTSMFAELKMRAIQAEER [S11F]	4.22
FQTRQEMTSMGAELKMRAIQAEER [S11G]	3.97
FQTRQEMTSMHAELKMRAIQAEER [S11H]	4.43
FQTRQEMTSMIAELKMRAIQAEER [S11I]	3.09
FQTRQEMTSMKAELKMRAIQAEER [S11K]	3.67
FQTRQEMTSMLAELKMRAIQAEER [S11L]	3.85
FQTRQEMTSMMAELKMRAIQAEER [S11M]	3.68
FQTRQEMTSMNAELKMRAIQAEER [S11N]	3.92
FQTRQEMTSMPAELKMRAIQAEER [S11P]	3.73

Variant	protein stability index
FQTRQEMTSMQAELKMRAIQAEER [S11Q]	4.16
FQTRQEMTSMRAELKMRAIQAEER [S11R]	3.83
FQTRQEMTSMTAELKMRAIQAEER [S11T]	3.73
FQTRQEMTSMVAELKMRAIQAEER [S11V]	3.74
FQTRQEMTSMWAELKMRAIQAEER [S11W]	1.96
FQTRQEMTSMYAELKMRAIQAEER [S11Y]	2.93
FQTRQEMTSMSCELKMRAIQAEER [A12C]	3.71
FQTRQEMTSMSDELKMRAIQAEER [A12D]	4.26
FQTRQEMTSMSEELKMRAIQAEER [A12E]	4.44
FQTRQEMTSMSFELKMRAIQAEER [A12F]	3.3
FQTRQEMTSMSGELKMRAIQAEER [A12G]	4.44
FQTRQEMTSMSHELKMRAIQAEER [A12H]	4.12
FQTRQEMTSMSIELKMRAIQAEER [A12I]	3.3
FQTRQEMTSMSKELKMRAIQAEER [A12K]	3.92
FQTRQEMTSMSLELKMRAIQAEER [A12L]	3.92
FQTRQEMTSMSMELKMRAIQAEER [A12M]	3.72
FQTRQEMTSMSNELKMRAIQAEER [A12N]	3.3
FQTRQEMTSMSPELKMRAIQAEER [A12P]	4.28
FQTRQEMTSMSQELKMRAIQAEER [A12Q]	4.29
FQTRQEMTSMSRELKMRAIQAEER [A12R]	3.73
FQTRQEMTSMSSELKMRAIQAEER [A12S]	4.24
FQTRQEMTSMSTELKMRAIQAEER [A12T]	3.94
FQTRQEMTSMSVELKMRAIQAEER [A12V]	3.47
FQTRQEMTSMSWELKMRAIQAEER [A12W]	2.04

Variant	protein stability index
FQTRQEMTSMSYELKMRAIQAEER [A12Y]	3.39
FQTRQEMTSMSAALKMRAIQAEER [E13A]	3.62
FQTRQEMTSMSACLKMRAIQAEER [E13C]	3.74
FQTRQEMTSMSADLKMRAIQAEER [E13D]	3.82
FQTRQEMTSMSAFLKMRAIQAEER [E13F]	3.1
FQTRQEMTSMSAGLKMRAIQAEER [E13G]	3.6
FQTRQEMTSMSAHLKMRAIQAEER [E13H]	3.08
FQTRQEMTSMSAILKMRAIQAEER [E13I]	3.21
FQTRQEMTSMSAKLKMRAIQAEER [E13K]	3.61
FQTRQEMTSMSALLKMRAIQAEER [E13L]	3.1
FQTRQEMTSMSAMLKMRAIQAEER [E13M]	3.47
FQTRQEMTSMSANLKMRAIQAEER [E13N]	3.1
FQTRQEMTSMSAPLKMRAIQAEER [E13P]	3.69
FQTRQEMTSMSAQLKMRAIQAEER [E13Q]	4.04
FQTRQEMTSMSARLKMRAIQAEER [E13R]	3.57
FQTRQEMTSMSASLKMRAIQAEER [E13S]	3.83
FQTRQEMTSMSATLKMRAIQAEER [E13T]	3.53
FQTRQEMTSMSAVLKMRAIQAEER [E13V]	3.35
FQTRQEMTSMSAWLKMRAIQAEER [E13W]	2.97
FQTRQEMTSMSAYLKMRAIQAEER [E13Y]	2.73
